The numbers were not newly measured in PMC4452855, which cites them from elsewhere.

This data set addresses IFN-λ1 (Homo sapiens) (UniProt Q8IU54).
Chain of UniProt Q8IU54 (Q8IU54 20-200): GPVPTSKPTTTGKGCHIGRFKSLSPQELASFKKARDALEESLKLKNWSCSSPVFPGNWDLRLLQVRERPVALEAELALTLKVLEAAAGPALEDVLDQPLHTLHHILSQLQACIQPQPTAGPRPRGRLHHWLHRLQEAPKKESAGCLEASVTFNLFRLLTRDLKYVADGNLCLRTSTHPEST

What is called Kd is a measure of binding affinity in units of concentration. Consider “sIFN-λR1 short splice variant (from UniProt Q8IU57)”, for which the Kd was 73 nM.
